B1: FBXO39 (parent)
chain: RVFKARIYTNRYETNEEDKTLQEI
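Further: lentivirally expressed fusions sorted by FACS into six bins by GFP to DsRed ratio, PSI derived from sequencing read proportions per bin multiplied by bin number.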

The variants in the data set derive from B1. The data set can be described thus: protein stability index of a GFP-peptide fusion (GPS, HEK-293T) (PSI 1-6); higher = more stable. Conditions: c terminus: a fixed tail appended.
For the variant RVFKARIYTNRYETAEEDKTLQEI [N15A], the protein stability index was 2.92.
With RVFKARIYTNRYETIEEDKTLQEI [N15I], the protein stability index came out at 2.9.
With RVFKARIYTNRYETKEEDKTLQEI [N15K], the protein stability index is 2.28.
In the case of RVFKARIYTNRYETHEEDKTLQEI [N15H], the protein stability index was found to be 3.27.
The figure for RVFKARIYTNRYETMEEDKTLQEI [N15M] is 3.15; for RVFKARIYTNRYETLEEDKTLQEI [N15L] it is 2.27.
As to RVFKARIYTNRYETTEEDKTLQEI [N15T], the protein stability index amounted to 3.
RVFKARIYTNRYETYEEDKTLQEI [N15Y]: the protein stability index stood at 2.06.
The value for RVFKARIYTNRYETDEEDKTLQEI [N15D] was 2.86; that for RVFKARIYTNRYETPEEDKTLQEI [N15P] was 3.01; that for RVFKARIYTNRYETSEEDKTLQEI [N15S] was 3.14.
The value for RVFKARIYTNRYETWEEDKTLQEI [N15W] was 2.61.
On to RVFKARIYTNRYETGEEDKTLQEI [N15G], for which the protein stability index was 2.5.
Take RVFKARIYTNRYETQEEDKTLQEI [N15Q]: the protein stability index came out at 2.55.
The figure for RVFKARIYTNRYETFEEDKTLQEI [N15F] is 1.99; for RVFKARIYTNRYETVEEDKTLQEI [N15V] it is 2.12; for RVFKARIYTNRYETCEEDKTLQEI [N15C] it is 1.86.
RVFKARIYTNRYETEEEDKTLQEI [N15E]: the protein stability index worked out at 2.96.
The value for RVFKARIYLNRYETNEEDKTLQEI [T9L] was 2.54; that for RVFKARIYENRYETNEEDKTLQEI [T9E] was 3.24.
The figure for RVFKARIYANRYETNEEDKTLQEI [T9A] is 3.18; for RVFKARIYWNRYETNEEDKTLQEI [T9W] it is 1.92.
Regarding RVFKARIYPNRYETNEEDKTLQEI [T9P], the protein stability index worked out at 3.15.
The value for RVFKARIYMNRYETNEEDKTLQEI [T9M] was 3.24.
As to RVFKARIYQNRYETNEEDKTLQEI [T9Q], the protein stability index was 2.73.
On to RVFKARIYINRYETNEEDKTLQEI [T9I], for which the protein stability index was found to be 2.21.
The figure for RVFKARIYVNRYETNEEDKTLQEI [T9V] is 2.32; for RVFKARIYRNRYETNEEDKTLQEI [T9R] it is 3.04; for RVFKARIYNNRYETNEEDKTLQEI [T9N] it is 2.87.
In the case of RVFKARIYFNRYETNEEDKTLQEI [T9F], the protein stability index was found to be 1.82.
RVFKARIYHNRYETNEEDKTLQEI [T9H]: the protein stability index stood at 2.47.
The value for RVFKARIYDNRYETNEEDKTLQEI [T9D] was 3.38; that for RVFKARIYGNRYETNEEDKTLQEI [T9G] was 2.49; that for RVFKARIYYNRYETNEEDKTLQEI [T9Y] was 2.16.
The value for RVFKARIYKNRYETNEEDKTLQEI [T9K] was 3.08; that for RVFKARIYSNRYETNEEDKTLQEI [T9S] was 2.18; that for RVFKARIYTNRYWTNEEDKTLQEI [E13W] was 2.53.
With RVFKARIYTNRYTTNEEDKTLQEI [E13T], the protein stability index turned out to be 2.15.
The value for RVFKARIYTNRYGTNEEDKTLQEI [E13G] was 2.81; that for RVFKARIYTNRYHTNEEDKTLQEI [E13H] was 1.85; that for RVFKARIYTNRYDTNEEDKTLQEI [E13D] was 2.48.
On to RVFKARIYTNRYSTNEEDKTLQEI [E13S], for which the protein stability index worked out at 2.81.
The figure for RVFKARIYTNRYFTNEEDKTLQEI [E13F] is 2.07.
Regarding RVFKARIYTNRYMTNEEDKTLQEI [E13M], the protein stability index amounted to 2.6.
In the case of RVFKARIYTNRYRTNEEDKTLQEI [E13R], the protein stability index was 2.79.
The figure for RVFKARIYTNRYQTNEEDKTLQEI [E13Q] is 2.98.
The value for RVFKARIYTNRYITNEEDKTLQEI [E13I] was 1.92; that for RVFKARIYTNRYVTNEEDKTLQEI [E13V] was 1.99; that for RVFKARIYTNRYYTNEEDKTLQEI [E13Y] was 1.69.
For the variant RVFKARIYTNRYATNEEDKTLQEI [E13A], the protein stability index was determined as 3.08.
The figure for RVFKARIYTNRYLTNEEDKTLQEI [E13L] is 3.1; for RVFKARIYTNRYKTNEEDKTLQEI [E13K] it is 2.4.
For RVFKARIYTNRYNTNEEDKTLQEI [E13N], the protein stability index was 2.
The value for RVFKARIPTNRYETNEEDKTLQEI [Y8P] was 2.45; that for RVFKARIQTNRYETNEEDKTLQEI [Y8Q] was 2.77.
As for RVFKARIITNRYETNEEDKTLQEI [Y8I], the protein stability index worked out at 2.73.
As to RVFKARITTNRYETNEEDKTLQEI [Y8T], the protein stability index was determined as 2.93.
As to RVFKARICTNRYETNEEDKTLQEI [Y8C], the protein stability index is 3.78.
The figure for RVFKARIMTNRYETNEEDKTLQEI [Y8M] is 2.77; for RVFKARIVTNRYETNEEDKTLQEI [Y8V] it is 3.08; for RVFKARILTNRYETNEEDKTLQEI [Y8L] it is 3.21.
The value for RVFKARINTNRYETNEEDKTLQEI [Y8N] was 3.97.
The value for RVFKARIDTNRYETNEEDKTLQEI [Y8D] was 4.51; that for RVFKARISTNRYETNEEDKTLQEI [Y8S] was 3.13.
In the case of RVFKARIGTNRYETNEEDKTLQEI [Y8G], the protein stability index worked out at 3.46.
For the variant RVFKARIETNRYETNEEDKTLQEI [Y8E], the protein stability index turned out to be 3.93.
For RVFKARIRTNRYETNEEDKTLQEI [Y8R], the protein stability index turned out to be 3.15.
The value for RVFKARIKTNRYETNEEDKTLQEI [Y8K] was 3.22; that for RVFKARIHTNRYETNEEDKTLQEI [Y8H] was 3.27.
Take RVFKARIWTNRYETNEEDKTLQEI [Y8W]: the protein stability index was found to be 2.16.
As for RVFKARIFTNRYETNEEDKTLQEI [Y8F], the protein stability index is 2.91.
The value for RVFKARIATNRYETNEEDKTLQEI [Y8A] was 3.84.
In the case of RVFKARIYTNKYETNEEDKTLQEI [R11K], the protein stability index amounted to 2.88.
The value for RVFKARIYTNVYETNEEDKTLQEI [R11V] was 2.18.
Take RVFKARIYTNIYETNEEDKTLQEI [R11I]: the protein stability index worked out at 2.46.
The figure for RVFKARIYTNHYETNEEDKTLQEI [R11H] is 2.34; for RVFKARIYTNCYETNEEDKTLQEI [R11C] it is 2.05; for RVFKARIYTNMYETNEEDKTLQEI [R11M] it is 2.93.
The value for RVFKARIYTNPYETNEEDKTLQEI [R11P] was 3.36.
As to RVFKARIYTNWYETNEEDKTLQEI [R11W], the protein stability index came to 2.19.
The figure for RVFKARIYTNEYETNEEDKTLQEI [R11E] is 3.57; for RVFKARIYTNLYETNEEDKTLQEI [R11L] it is 2.59.
The value for RVFKARIYTNYYETNEEDKTLQEI [R11Y] was 2.5.
The figure for RVFKARIYTNDYETNEEDKTLQEI [R11D] is 3.23; for RVFKARIYTNQYETNEEDKTLQEI [R11Q] it is 3.2.
On to RVFKARIYTNGYETNEEDKTLQEI [R11G], for which the protein stability index is 3.36.
With RVFKARIYTNNYETNEEDKTLQEI [R11N], the protein stability index came to 2.53.
Regarding RVFKARIYTNSYETNEEDKTLQEI [R11S], the protein stability index came out at 3.38.
Take RVFKARIYTNTYETNEEDKTLQEI [R11T]: the protein stability index came to 3.75.
Take RVFKARIYTNAYETNEEDKTLQEI [R11A]: the protein stability index was 2.01.
In the case of RVFKARIYTRRYETNEEDKTLQEI [N10R], the protein stability index was 2.6.
The figure for RVFKARIYTIRYETNEEDKTLQEI [N10I] is 2.73; for RVFKARIYTGRYETNEEDKTLQEI [N10G] it is 2.75; for RVFKARIYTCRYETNEEDKTLQEI [N10C] it is 2.29.

The values are drawn from the supplement of paper PMC10567573.
